# Data published in US20200216495A1 (ADRX, published 2020).
# Values joined by “and” are separate entries in the source; they are usually repeats but may differ in a detail not shown here. Equal values may be shown once. Square brackets hold non-standard residues; d marks the D form. Ends that are not written are not given here. dNle = CCCC[C@@H](N)C(=O)O
# Target: Tau40 P301L protein (human)
# Test: cell-based or functional assay
row,"IC50, Tau40 assay (ThT)",Binder
1,1280 nM,[dW][dR][dL][dR][dM][dH][dW] [wrlrmhw (PEPTIDE ID NO: 260)]
2,1380 nM and 2080 nM,[dF][dW][dL][dK][dL][dR][dW][dF] [fwlklrwf (PEPTIDE ID NO: 15)]
3,1240 nM,[dF][dR][dL][dK][dL][dR][dH][dW] [frlklrhw (PEPTIDE ID NO: 116)]
4,1110 nM,[dL][dK][dI][dR][dI][dH][dY][dF] [lkirihyf (PEPTIDE ID NO: 250)]
5,650 nM and 1020 nM,[dW][dK][dL][dW][dL][dR][dW] (not fully specified; printed as wklwlrw) [wklwlrw (PEPTIDE ID NO: 91)]
6,1130 nM,[dW][dW][dR][dF][dH][dW][dR] [wwrfhwr (PEPTIDE ID NO: 43)]
7,1470 nM and 710 nM,[dR][dI][dR][dI][dR][dW] [ririrw (PEPTIDE ID NO: 75)]
8,1120 nM and 1150 nM,[dF][dR][dI][dR][dI][dK][dH][dY] [fririkhy (PEPTIDE ID NO: 114)]
9,1420 nM,[dH][dW][dR][dL][dK][dV][dR][dW] [hwrlkvrw (PEPTIDE ID NO: 266)]
10,1290 nM and 1390 nM,[dL][dK][dI][dH][dI][dR][dH][dW] [lkihirhw (PEPTIDE ID NO: 148)]
11,1490 nM,[dW][dQ][dL][dK][dV][dR][dW] [wqlkvrw (PEPTIDE ID NO: 273)]
12,1460 nM,[dR][dW][dR][dW][dR][dW] [rwrwrw (PEPTIDE ID NO: 17)]
13,1480 nM,[dL][dK][dI][dR][dI][dA][dY] [lkiriay (PEPTIDE ID NO: 271)]
14,1260 nM and 1310 nM,[dF][dH][dI][dR][dI][dR][dH][dW] [fhirirhw (PEPTIDE ID NO: 138)]
15,1160 nM,[dL][dH][dL][dK][dI][dR][dY][dH] [lhlkiryh (PEPTIDE ID NO: 410)]
16,1120 nM and 1210 nM,[dW][dI][dK][dI][dR][dW] [wikirw (PEPTIDE ID NO: 21)]
17,1340 nM and 1360 nM,[dF][dK][dL][dK][dL][dR][dH][dW] [fklklrhw (PEPTIDE ID NO: 125)]
18,680 nM,[dW][dR][dL][dK][dV][dR][dW][dL] [wrlkvrwl (PEPTIDE ID NO: 197)]
19,1250 nM,[dH][dL][dK][dI][dR][dI][dH][dY] [hlkirihy (PEPTIDE ID NO: 259)]
20,1120 nM,[dL][dK][dI][dR][dI][dNle][dY] [lkiriuy (PEPTIDE ID NO: 251)]

row,"IC50, Tau40 assay (ThT)",Binder
1,690 nM,[dW][dL][dK][dI][dR][dI][dH][dY] [wlkirihy (PEPTIDE ID NO: 198)]
2,1170 nM,[dW][dR][dL][dK][dT][dR][dW] [wrlktrw (PEPTIDE ID NO: 255)]
3,1160 nM,[dE][dL][dK][dI][dR][dI][dH][dY] [elkirihy (PEPTIDE ID NO: 253)]
4,1290 nM,[dW][dR][dL][dW][dI][dH][dW] [wrlwihw (PEPTIDE ID NO: 428)]
5,1510 nM,[dL][dK][dI][dR][dI][dH][dR][dH] [lkirihrh (PEPTIDE ID NO: 274)]
6,1250 nM,[dW][dA][dL][dK][dV][dR][dW] [walkvrw (PEPTIDE ID NO: 257)]
7,1410 nM,[dF][dR][dL][dR][dI][dW][dW] [frlriww (PEPTIDE ID NO: 423)]
8,1190 nM,[dY][dL][dK][dI][dR][dI][dH][dY] [ylkirihy (PEPTIDE ID NO: 256)]
9,1190 nM and 1100 nM,[dL][dR][dI][dR][dI][dK][dH][dY] [lririkhy (PEPTIDE ID NO: 145)]
10,1270 nM and 990 nM,[dW][dK][dV][dW][dV][dR]G[dW] (not fully specified (residue 7); printed as wkvwvrgw) [wkvwvrgw (PEPTIDE ID NO: 93)]
11,1340 nM,[dF][dK][dI][dH][dL][dR][dH][dW] [fkihlrhw (PEPTIDE ID NO: 124)]
12,1190 nM,[dW][dH][dL][dR][dL][dR][dH][dW] [whlrlrhw (PEPTIDE ID NO: 109)]
13,1420 nM and 1070 nM,[dL][dK][dI][dR][dL][dH][dH][dW] [lkirlhhw (PEPTIDE ID NO: 143)]
14,1370 nM and 1460 nM,[dF][dR][dI][dK][dL][dR][dW] [friklrw (PEPTIDE ID NO: 47)]
15,1110 nM,[dW][dL][dR][dV][dQ][dV][dK][dL][dW] [wlrvqvklw (PEPTIDE ID NO: 416)]
16,1390 nM,[dW][dE][dL][dK][dV][dR][dW][dW] [welkvrww (PEPTIDE ID NO: 264)]
17,1460 nM,[dF][dR][dI][dR][dL][dR][dW] [frirlrw (PEPTIDE ID NO: 56)]
18,1150 nM and 1200 nM,[dF][dR][dL][dK][dI][dR][dH][dW] [frlkirhw (PEPTIDE ID NO: 117)]
19,1360 nM,[dW][dR][dL][dK][dF][dR][dW] [wrlkfrw (PEPTIDE ID NO: 263)]
20,1430 nM,[dY][dW][dR][dL][dK][dV][dR][dW] [ywrlkvrw (PEPTIDE ID NO: 268)]

row,"IC50, Tau40 assay (ThT)",Binder
1,1390 nM and 1510 nM,[dF][dK][dL][dH][dL][dR][dH][dW] [fklhlrhw (PEPTIDE ID NO: 126)]
2,1200 nM and 1470 nM,[dF][dR][dL][dR][dI][dH][dW] [frlrihw (PEPTIDE ID NO: 270)]
3,1310 nM,[dF][dR][dV][dR][dI][dR][dH][dW] [frvrirhw (PEPTIDE ID NO: 118)]
4,1320 nM,[dF][dW][dR][dL][dK][dV][dR][dW] [fwrlkvrw (PEPTIDE ID NO: 261)]
5,1490 nM,[dW][dR][dL][dR][dI][dA][dW] [wrlriaw (PEPTIDE ID NO: 272)]
6,1330 nM,[dW][dR][dL][dR][dI][dH][dT] [wrlriht (PEPTIDE ID NO: 262)]
7,1410 nM,[dH][dR][dL][dK][dV][dR][dW][dW] [hrlkvrww (PEPTIDE ID NO: 265)]
8,1170 nM and 1570 nM,[dM][dR][dL][dK][dV][dR][dW] [mrlkvrw (PEPTIDE ID NO: 254)]
9,680 nM,[dV][dR][dW][dW][dK][dL][dR][dW] [vrwwklrw (PEPTIDE ID NO: 196)]
10,1250 nM and 670 nM,[dL][dK][dI][dR][dI][dH][dY][dH] [lkirihyh (PEPTIDE ID NO: 147)]
11,1290 nM and 1110 nM,[dW][dR][dL][dR][dI][dH][dW][dW] [wrlrihww (PEPTIDE ID NO: 20)]
12,650 nM and 850 nM,[dL][dK][dI][dR][dI][dR][dY][dH] [lkiriryh (PEPTIDE ID NO: 194)]
13,1400 nM and 1490 nM,[dR][dI][dK][dI][dR][dW] [rikirw (PEPTIDE ID NO: 26)]
14,1450 nM,[dL][dK][dI][dR][dI][dH][dY][dA] [lkirihya (PEPTIDE ID NO: 269)]
15,1410 nM and 1870 nM,[dL][dR][dI][dR][dI][dR][dF][dH] [lririrfh (PEPTIDE ID NO: 152)]
16,1220 nM and 1540 nM,[dL][dR][dI][dR][dL][dH][dH][dF] [lrirlhhf (PEPTIDE ID NO: 146)]
17,660 nM,[dW][dW][dR][dV][dK][dL][dR][dW] [wwrvklrw (PEPTIDE ID NO: 195)]
18,1240 nM and 1310 nM,[dF][dR][dI][dR][dI][dH][dH][dW] [fririhhw (PEPTIDE ID NO: 115)]
19,1270 nM and 1430 nM,[dY][dR][dV][dR][dI][dE][dW][dL] [yrvriewl (PEPTIDE ID NO: 159)]
20,1210 nM and 1680 nM,[dR][dL][dK][dI][dR][dW] [rlkirw (PEPTIDE ID NO: 23)]
